Measured values from publication PMC9861546.

Assays:
[1] = biological target: chimeric L1:P18I10 capsid protein (HPV16 L1 with the HIV-1 P18I10 peptide in the DE loop), VLPs (human papillomavirus type 16 | HIV-1) (UniProt P03101); experiment: cross-linking; disulfide cross-linking seen by non-reducing SDS-PAGE; VLPs in Laemmli sample buffer without or with 5% 2-mercaptoethanol, room temperature, 24 h; blot with anti-HPV16 L1 CAMVIR-1
[2] = biological target: chimeric L1:T20 capsid protein (HPV16 L1 with the HIV-1 T20 peptide in the DE loop), VLPs (human papillomavirus type 16 | HIV-1) (UniProt P03101); experiment: as above

Substance	percent of L1 disulfide bonded into dimers or pentamers [1] [%]	percent of L1 disulfide bonded into dimers or pentamers [2] [%]
chimeric L1:P18I10 capsid protein (HPV16 L1 with the HIV-1 P18I10 peptide in the DE loop), VLPs (from UniProt P03101 1-129; P03101 137-505)	70	–
chimeric L1:T20 capsid protein (HPV16 L1 with the HIV-1 T20 peptide in the DE loop), VLPs (from UniProt P03101 1-129; P03101 137-505)	–	70
